Measured values: patent publication US7166733B2, “O,O'-Amidomalonate and N,O-Amidomalonate platinum complexes” (priority 2000, dated 2007)
Where “and” joins values, the source holds several entries; their conditions need not be identical. Identical values can stand only once.

How the values were obtained:
[1] = system: Bl6FI0 melanoma cells; test: Clonogenic (colony-formation) assay; assay type: cell-based, murine; settings: 7 days incubation
Protocol: The relative cytotoxic activity of various O,O′—Pt chelate analogs were evaluated in vitro by means of a clonogenic (colony-formation) assay employing a tissue culture of Bl6FI0 melanoma cells. In this way, the activity of the analogs was compared to that of cisplatin and carboplatin. The effect of conversion to an N,O—Pt chelate was also evaluated. Briefly, cells were seeded into culture dishes and allowed to attach. The cultures were incubated for 7 days in medium containing the desired concentration of the test agent. After fixation, the number of cell clusters containing >50 cells was scored as a colony. Each concentration of test agent was assayed in triplicate. The mean number of colonies in each of the triplicate dishes was divided by the mean number of colonies in the control (no test agent) dishes to obtain a percent survival value for each concentration of test agent. The IC50 (concentration resulting in 50% inhibition of growth) of each of the agents was determined by linear regression analysis using the data values directly above and below the 50% survival point.

[2] = Single-dose IV maximum tolerated dose study; assay type: in vivo; settings: mice, highest dose with no drug-induced deaths
Description: For these studies, the MTD was defined as the highest dose evaluated in which no mouse deaths resulted from drug-induced toxicity.

[3] = Percent Pt released versus pH over time in citrate PBS; assay type: physicochemical; settings: 37° C.
Protocol: A stock solution of citrate PBS that was 10 mM in citrate, 20 mM in phosphate, and 100 mM in NaCl was prepared and split into bottles which were then adjusted to the desired pH. The bottles were warmed to 37° C. in an oven and poly(HPMA)-GFLG-Ama=Pt(NH3)2, N,O-chelate, ˜20 kDa, was added to give a concentration of approximately 2 mg of polymer platinum conjugate per mL buffer. The mixtures were well mixed to give colorless solutions. At the indicated times, three approximately 2.5 mL aliquots were removed from the solution at each pH and transferred to previously washed YM-3 ultracentrifuge devices (Amicon) and spun at 5000 RCF and 37° C. for 50 min. Once all samples for all time points have been collected and prepared, the filtrates and stock solutions are analyzed against Pt standards (0–10 ppm) by ICP-OES at the platinum emission line of 214.42 nm. For each time point and at each pH, three samples were prepared and analyzed.

## poly(HPMA)-GFLG-Ama=Pt(NH3)2, N,O—Pt chelate [Example 4]
[1]
  IC50: 3.4 µM
[2]
  maximum tolerated dose (MTD): 400 mg PVkg
[3]; pH 3.4, citrate PBS, 1 h
  percent Pt released: 2.0%
[3]; pH 3.4, citrate PBS, 2 h
  percent Pt released: 4.2 ± 0.1%
[3]; pH 3.4, citrate PBS, 4 h
  percent Pt released: 6.6%
[3]; pH 3.4, citrate PBS, 8 h, 100% N,O-chelate, approx. 20 kDa
  percent Pt released: 12% and 12.0 ± 0.1%
[3]; pH 3.4, citrate PBS, 24 h, 100% N,O-chelate, approx. 20 kDa
  percent Pt released: 30% and 29.1 ± 3.9%
[3]; pH 4.4, citrate PBS, 1 h
  percent Pt released: 0.9 ± 0.1%
[3]; pH 4.4, citrate PBS, 2 h
  percent Pt released: 1.9%
[3]; pH 4.4, citrate PBS, 4 h
  percent Pt released: 3.3 ± 0.4%
[3]; pH 4.4, citrate PBS, 8 h
  percent Pt released: 5.1 ± 1.2%
[3]; pH 4.4, citrate PBS, 24 h
  percent Pt released: 17.0 ± 3.6%
[3]; pH 5.4, citrate PBS, 1 h
  percent Pt released: 0.5%
[3]; pH 5.4, citrate PBS, 2 h
  percent Pt released: 0.9 ± 0.08%
[3]; pH 5.4, citrate PBS, 4 h
  percent Pt released: 1.4 ± 0.2%
[3]; pH 5.4, citrate PBS, 8 h
  percent Pt released: 2.6 ± 0.4%
[3]; pH 5.4, citrate PBS, 24 h
  percent Pt released: 7.3%
[3]; pH 6.4, citrate PBS, 1 h
  percent Pt released: 0.4%
[3]; pH 6.4, citrate PBS, 2 h
  percent Pt released: 0.7 ± 0.07%
[3]; pH 6.4, citrate PBS, 4 h
  percent Pt released: 0.9 ± 0.06%
[3]; pH 6.4, citrate PBS, 8 h
  percent Pt released: 1.3 ± 0.1%
[3]; pH 6.4, citrate PBS, 24 h
  percent Pt released: 2.7 ± 0.1%
[3]; pH 7.4, citrate PBS, 1 h
  percent Pt released: 0.36 ± 0.01%
[3]; pH 7.4, citrate PBS, 2 h
  percent Pt released: 0.5 ± 0.07%
[3]; pH 7.4, citrate PBS, 4 h
  percent Pt released: 0.7 ± 0.04%
[3]; pH 7.4, citrate PBS, 8 h
  percent Pt released: 0.9 ± 0.02%
[3]; pH 7.4, citrate PBS, 24 h
  percent Pt released: 1.6 ± 0.0%
[3]; pH 8.2, citrate PBS, 1 h
  percent Pt released: 0.39 ± 0.0%
[3]; pH 8.2, citrate PBS, 2 h
  percent Pt released: 0.7 ± 0.08%
[3]; pH 8.2, citrate PBS, 4 h
  percent Pt released: 0.7 ± 0.04%
[3]; pH 8.2, citrate PBS, 8 h
  percent Pt released: 0.8 ± 0.16%
[3]; pH 8.2, citrate PBS, 24 h
  percent Pt released: 1.8 ± 0.02%
